{"source": "paper PMC6340931", "origin": "cited, not measured here", "key": {"[1]": {"biological_target": "Neurotensin (Homo sapiens) (UniProt P30990)"}, "[2]": {"biological_target": "Sortilin-derived propeptide (SDP) Gln1-Arg44 (Homo sapiens) (UniProt Q99523)"}, "[3]": {"biological_target": "Sortilin-derived propeptide (SDP) Gln1-Arg44 (Homo sapiens) (UniProt Q99523)", "remark": "listed apart in the source"}}, "note": "Like-named read-outs stand apart in the source and are kept apart here."}
{"substance": "Sortilin (from UniProt Q99523)", "values": [{"measurement": "Kd", "setting": "[1]", "value": 0.3, "unit": "nM"}]}
{"substance": "Sortilin mature (from UniProt Q99523)", "values": [{"measurement": "Kd", "setting": "[2]", "value": 5, "unit": "nM"}]}
{"substance": "TREK-1 (from UniProt O95069)", "values": [{"measurement": "Kd", "setting": "[3]", "value": 5, "unit": "nM"}]}
